# Earlier results as cited in publication PMC5413942.
# Target: FhuA Ton box peptide Ton box (Escherichia coli) (UniProt P06971)
# Chain of TonB (P02929 whole entry): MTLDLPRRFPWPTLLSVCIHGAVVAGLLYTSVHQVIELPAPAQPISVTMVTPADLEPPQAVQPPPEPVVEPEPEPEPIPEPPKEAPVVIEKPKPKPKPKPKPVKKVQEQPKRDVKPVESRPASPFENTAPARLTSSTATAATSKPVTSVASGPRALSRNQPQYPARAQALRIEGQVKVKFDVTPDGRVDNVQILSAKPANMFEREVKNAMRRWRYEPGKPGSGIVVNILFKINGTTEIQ
substance,measurement,value
TonB (from UniProt P02929),Kd,36 µM
